Assay results: PMC12462963, “Quorum Sensing Inhibits Type III‐A CRISPR‐Cas System Activity Through Repressing Positive Regulators SarA and ArcR in Staphylococcus Aureus”

What was measured:
[1] = target: T1, ArcR-His6 (Staphylococcus aureus TZ0912) (UniProt Q2FUY1); assay: EMSA; details: EMSA: 750 mM NaCl, 50 mM Tris-HCl pH 7.4, 0.5 mM DTT, 0.5 mM EDTA (as printed for binding buffer), 20 ng probe in 20 uL, 30 min 37 C; 6% gel, 0.5x TBE
T1 sequence: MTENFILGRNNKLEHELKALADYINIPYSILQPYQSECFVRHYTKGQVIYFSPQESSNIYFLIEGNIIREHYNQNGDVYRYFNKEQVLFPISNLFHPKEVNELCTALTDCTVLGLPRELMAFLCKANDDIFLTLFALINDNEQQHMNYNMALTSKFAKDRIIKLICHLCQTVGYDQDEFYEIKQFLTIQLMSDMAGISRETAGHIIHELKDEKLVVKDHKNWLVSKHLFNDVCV

ArcR-His6 [2] = target: T2, ArcR-His6 (Staphylococcus aureus TZ0912, UniProt Q2FUY1 1-234); assay: EMSA; 7.2 uM; EMSA: 750 mM NaCl, 50 mM Tris-HCl pH 7.4, 0.5 mM DTT, 0.5 mM EDTA (as printed for binding buffer), 20 ng probe in 20 uL, 30 min 37 C; 6% gel, 0.5x TBE; details: protein: recombinant; tags: His6 (pET28a NdeI/XhoI); chain copies: 2; label: 5'-FAM; blunt
T2 sequence: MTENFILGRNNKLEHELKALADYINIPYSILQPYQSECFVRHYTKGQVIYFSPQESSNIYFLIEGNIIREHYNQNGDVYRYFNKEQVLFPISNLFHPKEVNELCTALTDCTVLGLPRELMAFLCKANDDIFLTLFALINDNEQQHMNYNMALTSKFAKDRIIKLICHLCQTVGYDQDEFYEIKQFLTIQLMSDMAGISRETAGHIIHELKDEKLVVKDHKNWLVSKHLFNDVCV

AgrA-His6 = target: T3, AgrA-His6 (Staphylococcus aureus TZ0912, UniProt Q5HEG2 1-238); assay: EMSA; shift from 0.25 uM; EMSA: 750 mM NaCl, 50 mM Tris-HCl pH 7.4, 0.5 mM DTT, 0.5 mM EDTA (as printed for binding buffer), 20 ng probe in 20 uL, 30 min 37 C; 6% gel, 0.5x TBE; details: protein: recombinant; tags: His6 (pET28a NdeI/XhoI); chain copies: 2; label: 5'-FAM; blunt
T3 sequence: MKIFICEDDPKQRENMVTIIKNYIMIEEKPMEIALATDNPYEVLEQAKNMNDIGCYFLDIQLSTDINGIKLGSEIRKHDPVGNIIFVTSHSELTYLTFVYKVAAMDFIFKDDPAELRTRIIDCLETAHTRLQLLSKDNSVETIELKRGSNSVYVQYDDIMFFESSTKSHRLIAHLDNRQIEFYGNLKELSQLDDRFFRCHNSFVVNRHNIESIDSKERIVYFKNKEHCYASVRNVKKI

ArcR-His6 [3] = target: T2, ArcR-His6; assay: EMSA; EMSA: 750 mM NaCl, 50 mM Tris-HCl pH 7.4, 0.5 mM DTT, 0.5 mM EDTA (as printed for binding buffer), 20 ng probe in 20 uL, 30 min 37 C; 6% gel, 0.5x TBE; details: protein: recombinant; tags: His6 (pET28a NdeI/XhoI); chain copies: 2; label: 5'-FAM; blunt

| Molecule | binding [1] | binding result (ArcR-His6 [2]) | further results |
| --- | --- | --- | --- |
| ATATAGTAGCATGGTGTTAGTTGTCACAGTTTTTGACAGCCAAAATAACACTTGAACCTTTGTGGTTATGCTATTTATTAAAGTATCT (double strand) [Pcrispr1+25+112] | no binding | – | – |
| GGGAGAACTAGAGATAGAATTTGGAAAAAGATTGTTGTAAATAAAATTATTAATCAATCAAAATGTTTAGAAAACAATTTACATAATGAGAATGTGAAGTTAT (double strand) [Pcas-222-123 (Table S2: -241-142)] | no binding | – | – |
| CATATATAATAAGTATTTAATTTTAATATATTTAAACTAATAATAATCAAATATACACTATTAACTGAAGATTTCATTGACTTGACATTTATTAAACTTT (double strand) [Pcrispr1-276-177] | no binding | – | – |
| Pcas-137-108 (Table S2: -156-127) (dsDNA) DNA 1: AGAATGTGAAGTTATTAGTAAACTTAGCAA DNA 2: TTGCTAAGTTTACTAATAACTTCACATTCT | – | binds | – |
| Pcrispr1-26+24 (dsDNA) DNA 1: CTTAATATATAGAAAATTATCATAATATTTGTCAAAAAAAGTGACATTTC DNA 2: GAAATGTCACTTTTTTTGACAAATATTATGATAATTTTCTATATATTAAG | – | binds | – |
| agr P2 promoter (dsDNA) DNA 1: TACATTTAACAGTTAAGTATTTATTTCCTACAGTTAGGCAATATAATG DNA 2: CATTATATTGCCTAACTGTAGGAAATAAATACTTAACTGTTAAATGTA | – | – | binding result (AgrA-His6): binds |
| Pcas-133-118 (Table S2: -152-137) (dsDNA) DNA 1: TGTGAAGTTATTAGTA DNA 2: TACTAATAACTTCACA | – | – | binding result (ArcR-His6 [3]): no binding |
| Pcrispr1+4+20 (dsDNA) DNA 1: TGTCAAAAAAAGTGACA DNA 2: TGTCACTTTTTTTGACA | – | – | binding result (ArcR-His6 [3]): no binding |
| Pcas-132-113 (Table S2: -151-132) (dsDNA) DNA 1: GTGAAGTTATTAGTAAACTT DNA 2: AAGTTTACTAATAACTTCAC | – | no binding | – |
| Pcas-142-103 (Table S2: -161-122) (dsDNA) DNA 1: TAATGAGAATGTGAAGTTATTAGTAAACTTAGCAAAAGAT DNA 2: ATCTTTTGCTAAGTTTACTAATAACTTCACATTCTCATTA | – | binds | – |
